Results on one protein are retold here after article PMC2843815 (Protein expression and purification, 2010).

This data set deals with the molecule itself. Kind of data set: SEC-MALS. In general terms: Size exclusion chromatography separates by hydrodynamic size, large species first.

B1: Bor1p (natural protein, S. cerevisiae)
chain: MSNESTRVTVSRGCTASDECAQALERTNDELDRESSVSESRSDEESHEKLSRRRFPTLGIGIWLDLKDRIPYYKSDWVDAFNYRVIPSIVDTYFNNLLPAIAFAQDMFDRTDNSYGVNEVLLSSAMAGIVFGVLGGQPLCIVGVTGPISIFNYTVYEIIKPLNTSYFGFMFWICMWSMIFHLVLAFTNAVCLLQYVTTFPCDIFGLFINVVYIQKGIQILTRQFSAKSGEKSVQDGFASVVVALVMTAFGLFFKLFHYYPLFSHRIRTFISDYSTALSVLFWSSFTHFGGYLHDVKFKKLPITKAFFPTSKVNRPQNTWLAYEPIPVKDVFIALPFGIFLTILFYFDHNVSSLMAQRHQYKLKKPSSFHYDFALLGLTTCISGVLGIPAPNGLIPQAPLHTETLLVRDSNQKVISCVEQRFTNTFQGLMILGTMTRPLLVCLGEIPQAVLSGLFFIMGINGLMTNSIIQRLVFLFSDPNRRDNTSPLMKVSKKSMLIFLSFSLTGFAGEFAITNTIAAIGFPLVLLLSVLVSFSFAYIFPTEELKILDTNVAQKFTIKNLLLENIRDAKFCDKHEDSGLEVLFQ
Usually stoichiometry N stands for a count of units in the complex or per binding partner. As for B1, the “stoichiometry N” value stood at 2.
